# In patent US20120022228A1, “PURIFICATION OF AMPHOTERIC PRODUCTS, OR OF PRODUCTS LIABLE TO BE CONVERTED INTO AMPHOTERIC PRODUCTS” (CENTRE NATIONAL DE LA RECHERCHE SCIENTIFIQUE, priority 2010, published 2012):
# Peptide text beside a SMILES is read from it.
# Assays:
# Type in all cases: physicochemical
# [1] = Partition of dipeptides between organic and aqueous phase as a function of percentage of deprotonation of the exchanger (FIG. 4); conditions: exchanger DEHPA deprotonated to 30%
# Description: FIG. 4 is a graphic representing the solubility of dipeptides in either an organic or an aqueous phase in function of the percentage of deprotonation of an exchanger dissolved in […]. In abscissae, the percentage of deprotonation of the exchanger is represented; said abscissae are graduated from 0 to 30%. The ordinates represent a partition coefficient between the organic phase and the aqueous phase, said ordinates being graduated from 0 to 1.
# The Influence of the percentage of deprotonated exchanger over the CPC purification of dipeptides GG, GY and LV is determined. […]
# [2] = Partition coefficient of SF328 evaluated by TLC in different biphasic solvent systems
# Method: Partition coefficient of SF328 was evaluated by TLC in different biphasic solvent systems. In the elution mode, it is required that the KD value of the compound of interest lies between 0.2 and 5 (preferentially about 1).
# [3] = CPC run in elution mode, stability of SF328 in the solvent system; conditions: MtBE/CH3CN/BuOH/Water 1% TFA (2:1:2:5, v/v), Example 54
# Method: Only the system MtBE/CH3CN/BuOH/Water 1% TFA (2:1:2:5, v/v) was tested. The experimental conditions were: • Rotation speed: 1300 rpm. • Sample injected: 100 mg. • Elution mode: ascending. • Flow rate: 8 ml/min.
# This system causes the degradation of SF328.
peptide extraction (partition organic/aqueous phase) [1],Molecule,"Evaluation KD ([2]; BuOH/Acetic acid/Water (4:1:5, v/v))","Evaluation KD ([2]; BuOH/Acetic acid/Water (5:1:4, v/v))","Evaluation KD ([2]; MtBE/CH3CN/BuOH/Water 1% TFA (2:1:2:5, v/v))","Evaluation KD ([2]; MtBE/CH3CN/Water (2:2:3, v/v))","Evaluation KD ([2]; MtBE/CH3CN/Water (3:2:5, v/v))",Stability in the solvent system [3]
improvement,"CC(C)C[C@H](N)C(=O)N[C@H](C(=O)O)C(C)C [LV, LeucylValine] (H-Leu-Val-OH)",–,–,–,–,–,–
–,H-Asp-Glu-Asn-Pro-Val-Val-His-Phe-Phe-Lys-Asn-Ile-Val-Thr-Pro-Arg-Thr-OH (H-DENPVVHFFKNIVTPRT-OH) [SF328],average,poor,good,poor,average,degradation
